The experiment has as its target T1, recombinant murine CD73 protein (form not stated) (murine) (UniProt Q61503).
T1 sequence (looked up): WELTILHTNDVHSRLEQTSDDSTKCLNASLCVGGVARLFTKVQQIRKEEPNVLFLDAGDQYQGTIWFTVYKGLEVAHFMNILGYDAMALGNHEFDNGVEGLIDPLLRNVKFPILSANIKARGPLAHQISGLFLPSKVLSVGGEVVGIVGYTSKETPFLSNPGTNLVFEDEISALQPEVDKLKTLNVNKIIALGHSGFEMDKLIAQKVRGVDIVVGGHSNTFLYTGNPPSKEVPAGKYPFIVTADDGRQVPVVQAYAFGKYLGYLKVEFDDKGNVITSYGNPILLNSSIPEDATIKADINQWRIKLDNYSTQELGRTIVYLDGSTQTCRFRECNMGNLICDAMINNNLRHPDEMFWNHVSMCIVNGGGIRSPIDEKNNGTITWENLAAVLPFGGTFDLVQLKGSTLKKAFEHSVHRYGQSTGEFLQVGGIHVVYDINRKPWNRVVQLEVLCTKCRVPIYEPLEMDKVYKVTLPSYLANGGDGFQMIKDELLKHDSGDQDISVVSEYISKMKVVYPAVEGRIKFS
The experiment in a line: Binding, Mouse; assay not described.

B1: CD730042 antibody (antibody, IgG1, V domains shown)
VH: GVQLVQSGGGLVQPGGSLRLSCAASGFTFSSYGMHWVRQAPGKGLEWVAVISYDGSIKYYADSVKGRFTISRDDSKNALYLQMNSLRAEDTAVYYCSTLSGSYGYFDYWGRGTLVTVSS
VL: QSVLTQPASVSGSPGQSITISCAGTSSDVGGYNYVSWYQQHPGKAPKLMIYEGSKRPSGVSNRFSGSKSGNTASLTISGLQAEDEADYYCSSYTTRSTRVFGGGTKLTVL
Regarding B1, the 1/EC50 was determined as 0 nM⁻¹.

B2: CD730047 antibody (antibody, IgG1, V domains shown)
VH: EVQLVQSGGGVVQPGRSLRLSCAASGFTFSSYGMHWVRQAPGKGLEWVAVISYDGSIKYYADSVKGRFAISRDNAKNTLYLQMNSLRREDTAMYYCASGLTGVAGALGVWGRGTLVTVSS
VL: QSVLTQPPSASGAPGQRVTISCSGSSSNIGSNTVNWYQRLPGAAPQLLIYNNDQRPSGIPDRFSGSKSGTSGSLVISGLQSEDEADYYCAAWDDSLSGNVFGTGTKVTVL
Take B2: the 1/EC50 came to 0 nM⁻¹.

For the origin of these results see patent US20160194407A1.
